Data published in patent publication US7442518B2, “Imaging regulated protein-protein interactions in cells and living animals by enhanced luciferase protein fragment complementation” (Washington University, priority 2003, dated 2008).
One block for each molecule: values may come before it.

How the values were obtained:
[1] = system: Cdc25C-NLuc/CLuc-14-3-3ε LCI pair; assay: LCI of Cdc25C/14-3-3ε interaction in HEK-293 cells; type: cell-based, human; conditions: UCN-01 1 μM, 6 hrs
Experimental: HEK-293 cells transfected with Cdc25C-NLuc/CLuc-14-3-3ε or mutant S216A Cdc25C-NLuc/CLuc-14-3-3ε were treated with vehicle alone or UCN-01 (1 μM) for 6 hrs prior to LCI. Data are expressed as percent of bioluminescence relative to untreated Cdc25C-NLuc/CLuc-14-3-3ε in cells and represent the mean±SEM of three independent experiments, n=4 each.
To replace the FRB with human Cdc25C or human p91 STAT1 (J. E. Darnell Jr., The Rockefeller University, 1230 York Avenue, NY, N.Y. 10021, USA.) in the NLuc fusion vector, open reading frames of these cDNAs were amplified by PCR using 5′ primers containing a BamHI site and Kozak consensus sequence upstream of the start site and 3′ primers which reconstituted the linker region up to the BsiWI site. FRB was replaced using the BamHI and BsiWI sites. FKBP was similarly replaced with 14-3-3ε or STAT1 using BsiWI at the 3′ end and EcoRV at the 5′ end.
Cells (1×10^4/well in 100 μl media) were transferred to 96-well black walled plates 16-24 hrs after transfection. At the times indicated, growth media was replaced with media containing appropriate drugs or vehicles. To image live cells, D-luciferin (10 μl of 1.5 mg/ml in PBS) was added to wells. Photon flux for each well was measured 8-10 min after addition of D-luciferin with an IVIS CCD camera (1 min exposure, f-stop=1, binning 8, FOV 15 cm). […]

[2] = system: phosphorylation of Cdc25C-NLuc on S216; assay: Western blot of phospho-S216 Cdc25C-NLuc in HEK-293 cells; type: cell-based, human; conditions: UCN-01 1 μM, 6 hrs
Experimental: Cells were left untreated or treated with UCN-01 (1 μM) for 6 hrs prior to lysis, processed for Western analysis and then probed with the antibodies indicated to visualize expression, phosphorylation, and the effect of UCN-01 on the LCI constructs.
Cells (3×10^6/10 cm dish) were transfected with the indicated plasmids (6 μg each). Media was removed 6 hrs prior to lysis and replaced with media containing UCN-01 at the concentrations indicated. Cells were washed with PBS and lysed by incubation for 30 min at 4° C. with 1 ml RIPA buffer containing protease inhibitors (50 mM tris-HCl, pH 7.4, 1% NP-40, 0.25% deoxycholic acid, 150 mM NaCl, 1 mM EDTA, 1 mM each PMSF, sodium orthovanadate, and NaF, 1 μg/ml each leupeptin, aprotinin, pepstatin). After centrifugation to remove insoluble material, protein concentration was determined by BCA (Pierce Biotechnology, Inc., Customer Service Department, P.O. Box 117, Rockford, Ill. 61105 U.S.A). The Bicinchoninic Acid (BCA) test to determine protein concentration is a highly sensitive alternate assay to the Lowry assay.
Proteins (200 μg) were separated by SDS-PAGE and analyzed using polyclonal primary antibodies against pGL3 luciferase (Promega US, 2800 Woods Hollow Road, Madison Wis. 53711, USA) or phospho-S216-Cdc25C (Santa Cruz Biotechnologies, 2145 Delaware Avenue, Santa Cruz, Calif. 95060, U.S.A.). […]

[3] = molecular target: FRB domain of human mTOR / FKBP-12 (FRB-NLuc/CLuc-FKBP LCI pair) (Homo sapiens, UniProt P42345+P62942); assay: Luciferase complementation imaging (LCI) of rapamycin-induced FRB/FKBP association in live HEK-293 cells; type: cell-based; conditions: HEK293, read-out: EC90 of rapamycin; HEK-293 cells transfected with FRB-NLuc/CLuc-FKBP
Sequence of FRB domain of human mTOR / FKBP-12 (FRB-NLuc/CLuc-FKBP LCI pair) (P42345 2024-2113): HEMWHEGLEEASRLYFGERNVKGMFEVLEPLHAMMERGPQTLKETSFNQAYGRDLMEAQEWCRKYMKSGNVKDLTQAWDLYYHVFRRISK
Sequence of FRB domain of human mTOR / FKBP-12 (FRB-NLuc/CLuc-FKBP LCI pair) (P62942 2-108): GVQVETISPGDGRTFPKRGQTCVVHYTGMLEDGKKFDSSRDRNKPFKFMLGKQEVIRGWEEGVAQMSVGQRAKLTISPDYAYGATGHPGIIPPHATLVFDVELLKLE
Experimental: Data, expressed as mean photon flux±SEM of quadruplicate wells, are representative of three independent tests.
HEK-293 cells were cultured in Dulbecco's Modified Eagle Medium (DMEM), (Life Technologies, 2575 University Ave. W., St. Paul, Minn. 55114 USA) supplemented with 10% fetal calf serum (FCS), 1% glutamine, 0.1% P/S, 0.1% fungizone. Cells (3×10^6/10 cm dish or 1.5×10^5 per 35 mm dish) were transiently co-transfected with pairs of plasmids as indicated using FuGene-6 (Roche) according to the manufacturers directions.

[4] = system: STAT1-NLuc/CLuc-STAT1 LCI pair; assay: LCI of STAT1-NLuc/CLuc-STAT1 in intact transduced cells (HEK-293, 2ftgh, U3A); type: cell-based, human; conditions: any time or any dose
Experimental: Each transduced cell line was sorted by FACS for expression of appropriate fluorescence markers (EGFP and mRFP) to enrich for cells carrying the imaging constructs. These enriched populations were seeded in a 96-well format (10^4 cells/well), and left untreated or treated with […] (1000 U/ml for 30 min). Bars represent the mean +/−SEM (n=4) for a representative test. Note the y-axis log scale.
The STAT1-NLuc and CLuc-STAT1 open reading frames were cloned into lentiviral vectors (gift of J. Milbrandt, Washington University in St. Louis, One Brookings Drive, St. Louis, Mo. 63130, USA ) downstream of a CMV promoter and upstream of an IRES linked to EGFP (Clontech) or mRFP (R. Tsien, UCSD), respectively.
Cells (1×10^4/well in 100 μl media) were transferred to 96-well black walled plates 16-24 hrs after transfection. At the times indicated, growth media was replaced with media containing appropriate drugs or vehicles. To image live cells, D-luciferin (10 μl of 1.5 mg/ml in PBS) was added to wells. Photon flux for each well was measured 8-10 min after addition of D-luciferin with an IVIS CCD camera (1 min exposure, f-stop=1, binning 8, FOV 15 cm). Cell lyastes used for imaging were prepared using Reporter Lysis Buffer (Promega US, 2800 Woods Hollow Road, Madison Wis. 53711, USA) according to the manufacturers directions.

[5] = system: STAT1-NLuc/CLuc-STAT1 LCI pair (nuclear accumulation); assay: Bioluminescence of nuclear extracts of cells expressing STAT1-NLuc/CLuc-STAT1; type: cell-based, human
Experimental: HEK-293 cells were transiently transfected with STAT1-NLuc/CLuc-STAT1, the Y701F STAT1 mutant LCI pair, or intact luciferase. […] To measure bioluminescence in extracts, an assay buffer including D-luciferin and ATP (Luciferase Assay Buffer, Promega, USA) was added to duplicate samples of each extract. Bars show the ratio +/−SEM of mean photon flux/μg protein for extracts of IFN-γ treated over untreated cells. […] Duplicate determinations are vertically arranged with independent extracts arrayed horizontally.
(§1) To confirm that phosphorylated STAT1 LCI pairs were biologically functional, the inventors measured the IFN-γ-inducible nuclear accumulation of bioluminescence activity. Cytoplasmic and nuclear extracts were prepared from untreated and IFN-γ-treated HEK-293 cells transiently co-transfected with the STAT1-NLuc/CLuc-STAT1 LCI pair, the Y701F mutant pair, or intact luciferase. […] Western blots of the cytoplasmic and nuclear extracts used in FIG. 16. confirmed purity of the extracts, neither fraction showing cross-contamination as assessed by the marker proteins β-tubulin (cytoplasm) and Topo II (nucleus), respectively (data not shown). Western blots also confirmed virtually identical expression levels of wild-type and Y701F mutant LCI pairs as well as appropriate phosphorylation of STAT1 proteins and reporters (data not shown).

[6] = system: Y701F mutant STAT1 LCI pair; assay: Bioluminescence of nuclear extracts of cells expressing the Y701F mutant STAT1 LCI pair; type: cell-based, human; conditions: IFN-γ 20 min, 100 U/ml, HEK-293
Experimental: HEK-293 cells were transiently transfected with STAT1-NLuc/CLuc-STAT1, the Y701F STAT1 mutant LCI pair, or intact luciferase. Forty-eight hours after transfection, cells were left untreated or treated with IFN-γ (1000 U/ml for 20 min) (n=3 for each) and then extracts prepared. To measure bioluminescence in extracts, an assay buffer including D-luciferin and ATP (Luciferase Assay Buffer, Promega, USA) was added to duplicate samples of each extract. Bars show the ratio +/−SEM of mean photon flux/μg protein for extracts of IFN-γ treated over untreated cells. […] Duplicate determinations are vertically arranged with independent extracts arrayed horizontally.
as §1, with “Western blots also confirmed virtually identical expression levels of wild-type and Y701F mutant LCI pairs as well as appropriate phosphorylation of STAT1 proteins and reporters (data not shown).” left out

[7] = system: STAT1-NLuc, CLuc-STAT1, endogenous p91 and p84 STAT1 phosphorylation; assay: Western blot of Y701 phosphorylation of STAT1 reporters and endogenous STAT1 in HEK-293 cells; type: cell-based, human; conditions: IFN-γ 1000 U/ml, 30 min
Experimental: Cells were left untreated or treated with IFN-γ (1000 U/ml) for 30 min prior to lysis, processed for Western analysis and then probed with the antibodies indicated to visualize expression and IFN-γ-induced phosphorylation of STAT1-NLuc (grey arrows), CLuc-STAT1 (black arrows), and endogenous p91 and p84 STAT1 (unfilled arrows). Intact luciferase expression (hatched arrow) is also shown. Note that while STAT1-NLuc could not be visualized using the STAT1 antibody, the fusion could be visualized with both Luc and phospho-STAT1 antibodies.

Molecule: CN[C@@H]1C[C@H]2O[C@@](C)([C@@H]1OC)n1c3ccccc3c3c4c(c5c6ccccc6n2c5c31)C(=O)N[C@@H]4O [UCN-01]
effect on bioluminescence of Cdc25C-NLuc/CLuc-14-3-3ε [1]: decreased bioluminescence
effect on phosphorylation of Cdc25C-NLuc on S216 [2]: reduction in phosphorylation

EC90 [3]: 80 nM
Molecule: CO[C@H]1C[C@@H]2CC[C@@H](C)[C@@](O)(O2)C(=O)C(=O)N2CCCC[C@H]2C(=O)O[C@H]([C@H](C)C[C@@H]2CC[C@@H](O)[C@H](OC)C2)CC(=O)[C@H](C)/C=C(\C)[C@@H](O)[C@@H](OC)C(=O)[C@H](C)C[C@H](C)/C=C/C=C/C=C/1C [rapamycin]

B1: IFN-γ: interferon-γ, activates JAK1-mediated phosphorylation of STAT1 on Y701 (protein, UniProt P01579 24-161, looked up)
Interferon gamma: QDPYVKEAENLKKYFNAGHSDVADNGTLFLGILKNWKEESDRKIMQSQIVSFYFKLFKNFKDDQSIQKSVETIKEDMNVKFFNSNKKKRDDFEKLTNYSVTDLNVQRKAIHELIQVMAELSPAAKTGKRKRSQMLFRG
effect on bioluminescence of co-transduced intact cells [4]: failed to change bioluminescence
bioluminescence (photon flux/μg protein) in nuclear extracts of HEK-293 cells ([5]; IFN-γ 20 min): specifically increased
increase in bioluminescence of nuclear extracts of U3A cells ([5]; IFN-γ 30 min, n=3): 6 fold
nuclear bioluminescence in extracts of cells with mutant STAT1 LCI pair [6]: No such IFN-γ-induced increase
phosphorylation of STAT1-NLuc, CLuc-STAT1 and endogenous p91 and p84 STAT1 [7]: resulted in phosphorylation
